What was measured:
[1] = target: T1, soluble recombinant HA (sHA) of H5N1TV (influenza A virus A/Vietnam/1194/2004 …, UniProt Q6J8F6 17-528); test: immunoblot (data not shown)
[2] = target: T1, soluble recombinant HA (sHA) of H5N1TV; test: immunoblot, reducing SDS-PAGE

| Binder | binding result [1] | binding result [2] |
| --- | --- | --- |
| CR6301 (antibody, V domains shown, human IgG1) VH: EVQLVESGGGLVQPGGSLRLSCAASGFTFSIYAMSWVRQAPGKGLEWVSAISSSGDSTYYADSVKGRFTISRDNARNTLYLQMNSLRAEDTAVYYCARAYGYTFDPWGQGTLVTVSS VL: not shown | binds | – |
| CR6296 (antibody, V domains shown, human IgG1) VH: EVQLVETGAEVKKPGASVKVSCKASGYTFTSYYMHWVRQAPGQGLEWMGWINPNSGGTNYAQKFQGRVTMTRDTSISTAYMELSRLRSDDTAVYYCAREGKWGPQAAFDIWGQGTMVTVSS VL: EIVMTQSPGTLSLSPGERATLSCRASQSVSSSYLAWYQQKPGQAPRLLIYDASSRATDIPDRFSGSGSGTDFTLTISRLEPEDFAVYYCQQYGSSLWTFGQGTKVEIKR | binds | – |
| CR6307 (antibody, V domains shown, human IgG1) VH: QVQLVQSGGGLVKPGGSLRLSCAASGFTFSSYSMNWVRQAPGKGLEWVSSISSSSSYIYYVDSVKGRFTISRDNAKNSLYLQMNSLRAEDTAVYYCARGGGSYGAYEGFDYWGQGTLVTVSS VL: EIVLTQSPGTLSLSPGERATLSCRASQRVSSYLAWYQQKPGQAPRLLIYGASTRAAGIPDRFSGSGSGTDFTLTISRLEPEDSAVYYCQQYGRTPLTFGGGTKVEIKR | – | binds |
| CR6141 (antibody, V domains shown, human IgG1) VH: EVQLVQSGAEVKKPGASVKVSCKASGYTFTGYYVYWVRQAPGQGLEWMGWISAYNGNTNYAQKFQGRVTITADKSTSTAYMELSSLRSEDTAVYYCARSRSLDVWGQGTTVTVSS VL: not shown | binds | – |
| CR6323 (antibody, V domains shown, human IgG1) VH: EVQLVESGAEVKKPGSSVKVSCKASGGTFSSYGISWVRQAPGQGLEWMGDIIGMFGSTNYAQNFQGRLTITADESTSTAYMELSSLRSEDTAVYYCARSSGYYPAYLPHWGQGTLVTVSS VL: not shown | – | binds |
